Test results reported in patent publication US20240180966A1 (YEDA RESEARCH AND DEVELOPMENT, published 2024).

B1: N17.2 (TCR)
alpha TRAV5 TRAJ9 CDR3: CAESSGGGFKTIF
beta TRBV6-6 TRBJ2-7 CDR3: CASSTPGPSAYEQYF
B2: N17.3.2 (TCR)
alpha TRAV19 TRAJ17 CDR3: CALSESGDAAGNKLTF
beta TRBV6-1 TRBJ1-1 CDR3: CAEGENTEAFF
B3: NH2 (TCR)
alpha TRAV19 TRAJ39 CDR3: CALSETINNAGNMLTF
beta TRBV6-1 TRBJ1-1 CDR3: CAASQNTEAFF
B4: N135.1 (TCR)
alpha TRAV19 TRAJ39 CDR3: CALSESHNNAGNMLTF
beta TRBV6-1 TRBJ1-1 CDR3: CAASQNTEAFF

Tests used:
[1] = target: T1, NRAS wild-type (Q61) peptide on HLA-A*01:01 (human); experiment: cytokine release
T1 peptide: ILDTAGQEEY

[2] = target: T2, NRAS Q61K (RAS.Q61K; the sequence is shared by NRAS, KRAS and HRAS) peptide on HLA-A*01:01 (human); experiment: multimer staining
T2 peptide: ILDTAGKEEY

[3] = target: T3, NRAS Q61R (RAS.Q61R) peptide on HLA-A*01:01 (human); experiment: activation reporter or marker
T3 peptide: ILDTAGREEY

[4] = target: T4, HLA-A*01:01 (human); experiment: HLA-peptidomics (W6/32 immunoaffinity, LC-MS/MS) of HLA-A*01:01 mono-allelic 721.221 cells with a RAS.Q61K minigene
T4 construct: whole, on cells; also called HLA allele A*01:01

[5] = target: T4, HLA-A*01:01; experiment: HLA-peptidomics (targeted MS) of HLA-A*01:01 mono-allelic 721.221 cells with a RAS.Q61R minigene

Binder | binding result [1] | binding result [2] | binding result [3] | binding result [4] | binding result [5]
B1 | no recognition | recognises | no recognition | – | –
ILDTAGKEEY (also called RAS.Q61K-derived neopeptide) [ILDTAGKEEY (SEQ ID NO: 1) neopeptide] | – | – | – | binds | –
ILDTAGREEY (also called RAS.Q61R-derived neopeptide) [ILDTAGREEY (SEQ ID NO: 34) neopeptide] | – | – | – | – | binds
B2 | no recognition | recognises | no recognition | – | –
B3 | no recognition | recognises | – | – | –
B4 | no recognition | recognises | no recognition | – | –
